Measured values taken from patent US20110288009A1, “LEPTIN AND LEPTIN ANALOG CONJUGATES AND USES THEREOF” (Angiochem Inc., priority 2008, published 2011).

Tests used:
[1] = in situ brain perfusion; threshold definition of efficient transport; cited from earlier work
[2] = in situ perfusion assay in lean and diet-induced obese (DIO) mice; format: in vivo; settings: DIO mice compared with lean mice; FIG. 4A
Description: Blood Flow Metab. 20(2):381-386.

ob/ob mice = assay: body weight of ob/ob mice treated with recombinant leptin; format: in vivo; settings: 0.1 mg/mouse or 0.25 mg/mouse daily, FIG. 21
Procedure: As a control, we tested the ability of recombinant leptin to reduce body weight in ob/ob mice using either 0.1 mg/mouse or 0.25 mg/mouse daily.

Molecule	transport across the BBB relative to that of Angiopep-1 (250 nM) [1]	transport across the BBB in DIO mice versus lean mice [2]	body weight (ob/ob mice)
T F F Y G G S R G K R N N F R T E E Y (TFFYGGSRGKRNNFRTEEY) [Angiopep-6]	38.5%	–	–
leptin: recombinant leptin used as control and comparator in Example 5 (protein, UniProt P41160 22-167, looked up) Leptin: VPIQKVQDDTKTLIKTIVTRINDISHTQSVSAKQRVTGLDFIPGLHPILSLSKMDQTLAVYQQVLTSLPSQNVLQIANDLENLRDLLHLLAFSKSCSLPQTSGLQKPESLDGVLEASLYSTEVVALSRLQGSLQDILQQLDVSPEC	–	reduced as compared to in lean mice	reduce body weight in these mice in a dose-dependent manner
